Reference: patent US20130174289A1, “Na+/Mg2+ Exchanger” (FBN - Leibnitz-Institut fur Nutztierbiologie, priority 2010, published 2013)

B1: B-cell receptor-associated protein 31 OS = Homo sapiens: SLC41A1 complex-forming partner from split-ubiquitin screen; GN = BCAP31 (protein)
chain: MSLQWTAVATFLYAEVFVVLLLCIPFISPKRWQKIFKSRLVELLVSYGNTFFVVLIVILVLLVIDAVREIRKYDDVTEKVNLQNNPGAMEHFHMKLFRAQRNLYIAGFSLLLSFLLRRLVTLISQQATLLASNEAFKKQAESASEAAKKYMEENDQLKKGAAVDGGKLDVGNAEVKLEEENRSLKADLQKLKDELASTKQKLEKAENQVLAMRKQSEGLTKEYDRLLEEHAKLQAAVDGPMDKKEE
B2: Protein YIPF6 OS = Homo sapiens: SLC41A1 complex-forming partner from split-ubiquitin screen; GN = YIPF6 (protein, UniProt Q96EC8 2-236, looked up)
Protein YIPF6: AEAEESPGDPGTASPRPLFAGLSDISISQDIPVEGEITIPMRSRIREFDSSTLNESVRNTIMRDLKAVGKKFMHVLYPRKSNTLLRDWDLWGPLILCVTLALMLQRDSADSEKDGGPQFAEVFVIVWFGAVTITLNSKLLGGNISFFQSLCVLGYCILPLTVAMLICRLVLLADPGPVNFMVRLFVVIVMFAWSIVASTAFLADSQPPNRRALAVYPVFLFYFVISWMILTFTPQ
B3: 3-beta-hydroxysteroid-Delta(8), Delta(7)-isomerase OS = Rattus norvegicus: SLC41A1 complex-forming partner from split-ubiquitin screen; GN = Ebp (protein, UniProt Q9JJ46 2-230, looked up)
3-beta-hydroxysteroid-Delta(8) …: TTNMLPLHPYWPRHLRLDNFVPNDLPTWHILVGLFSFSGVLIVITWLLSSRVSVVPLGTGRRLALCWFAVCTFIHLVIEGWFSFYHEILLEDQAFLSQLWKEYSKGDSRYILSDGFIVCMESVTACLWGPLSLWVVIAFLRHQPFRFVLQLVVSVGQIYGDVLYFLTELRDGFQHGELGHPLYFWFYFVIMNAIWLVIPGILVFDAIKHLTNAQSMLDNKVMKIKSKHN

Target: T1, SLC41A1 (Homo sapiens, UniProt Q8IVJ1)
T1 construct: split-ubiquitin half (bait fusion); expressed in transfected cells
Assay: Split-ubiquitin screen for SLC41A1 complex-forming partners
Assay type: binding
Details: for occurrence: frequency of occurrence = number of clones that revealed interaction with SLC41A1
Text: These SLC41A1 complex-forming partners were screened out by the split-ubiquitin method, which is well known in the art and are listed in detail in Table 1. The ubiquitin-based split protein sensor (USPS) is the method that makes it possible to detect and monitor protein-protein interactions as a function of time, at the natural sites of these interactions in a living cell. Details on the method can be found in Johnsson and Varshaysky, 1994.
In order to shorten the table, multiple entries were deleted and only the frequency of occurrence (Occurrence) is indicated as a number. The singletons listed in Table 2 are the weakest partners. They are organized from the strongest to the weakest.
In the above tables 1 and 2 underlined names indicate highly connected proteins, found in the majority of DUALmembrane SU-YTH screens. Highly connected proteins include chaperones, stress-induced endoplasmatic reticulum proteins, components of the translocon machinery and proteins involved in membrane protein sorting and transport.

T1 sequence (Q8IVJ1 whole entry, the tested form may be a part): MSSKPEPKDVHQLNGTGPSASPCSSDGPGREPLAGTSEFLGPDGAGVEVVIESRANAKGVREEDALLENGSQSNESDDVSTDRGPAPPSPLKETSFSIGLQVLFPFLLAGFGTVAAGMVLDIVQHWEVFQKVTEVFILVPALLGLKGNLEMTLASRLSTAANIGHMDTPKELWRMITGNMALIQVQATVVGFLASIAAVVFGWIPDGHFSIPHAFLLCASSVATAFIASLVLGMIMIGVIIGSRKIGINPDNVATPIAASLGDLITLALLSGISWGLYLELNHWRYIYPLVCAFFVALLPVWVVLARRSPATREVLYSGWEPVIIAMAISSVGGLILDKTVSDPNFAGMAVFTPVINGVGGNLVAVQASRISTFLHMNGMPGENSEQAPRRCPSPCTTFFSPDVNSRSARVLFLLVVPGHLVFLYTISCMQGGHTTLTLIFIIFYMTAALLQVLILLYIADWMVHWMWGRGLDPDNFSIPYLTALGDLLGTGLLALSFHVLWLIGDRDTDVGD

Row | Molecule | clones identified with interaction with SLC41A1 (split-ubiquitin screening) | occurrence
1 | B1 | Ten | 
2 | B2 |  | 2
3 | B3 |  | 1
